Source: US20050054571A1, “Antimicrobial proteins from the SPO1 bacteriophage” (Rice University, priority 2003, published 2005)

Key:
E. coli = assay: Effect of induced expression of cloned SPO1 genes on growth and viability of E. coli (liquid medium and colony formation); assay type: cell-based; conditions: cloned gene(s) expressed from IPTG-inducible promoter, * = lethality conclusion based on failure to clone, ** = data not conclusive
Description: (§1) For analysis of antimicrobial activity we first cloned most of the 24 host-takeover genes (genes 37-60) singly or in multiple gene combinations into a B. subtilis/E. coli shuttle vector (pPW19) under control of an IPTG-inducible promoter (Wei and Stewart, 1993). […] These remaining genes are being cloned using expression vectors with more tightly regulated promoters, such as pJONEX4 (Sayers, 1996), pET101, or pX (Kim et al., 1996). The transformed E. coli and B. subtilis were used to determine the antimicrobial activity, if any, of the cloned genes. The effect of induction on bacterial growth and viability was measured both in liquid medium and by colony formation. Definitive establishment of lethality was shown by loss of the ability to form colonies even after removal from the inducing agent. Indication of probable lethality was based on total inability to form colonies under inducing conditions.

B. subtilis [1] = assay: Effect of induced expression of cloned SPO1 genes on growth and viability of B. subtilis (liquid medium and colony formation); assay type: cell-based; conditions: cloned gene(s) expressed from IPTG-inducible promoter, * = lethality conclusion based on failure to clone, ** = data not conclusive
Description: as §1

B. subtilis [2] = assay: Effect of gene expression on cell division of B. subtilis; assay type: cell-based; conditions: expression of the gene alone in B. subtilis
Description: Genes 58-56: Expression of the whole operon is lethal to both species. […] Infection by SPO1 inhibits cell division, and a gene 56 mutation prevents that inhibition. B. subtilis mutants resistant to GP56 have been isolated, but the mutant gene(s) has not yet been identified.

bacteria = assay: Toxicity or lethality of expression of cloned SPO1 genes, bacterium not given; assay type: cell-based
Description: as §1
(§2) In cells growing in liquid medium, expression of the cloned gene 44 was induced at time 0. At subsequent times, the number of cells remaining viable was measured by plating in the absence of inducer. More than 99% of the cells were killed within three hours.

[3] = test system: E. coli strain DH5(pPW27); assay: Killing of E. coli by IPTG-induced expression in liquid medium, viable cells counted by plating without inducer (FIG. 8); assay type: cell-based; conditions: within three hours after induction at time 0 (0.2 mM IPTG), plating in the absence of inducer
Method: FIG. 8. Expression of SPO1 GP44 in E. coli. Cells of E. coli strain DH5(pPW27), which expresses SPO1 gene 44 from an IPTG-inducible promoter, were transformed either with vector pACYC177 or with plasmid pPW40, in which the mutant ipoB gene had been cloned in pACYC177. Aliquots of the two cultures were induced by adding 0.2 mM IPTG at time 0, and were assayed for viable cells at various times thereafter, by plating on media lacking IPTG. Open symbols, no IPTG; Closed symbols, 0.2 mM IPTG added at time 0; Squares, mutant rpoB; and Circles, no mutant rpob. Viable cell count is expressed in cells/ml ×10^−6.
as §2

[4] = test system: bacterial DNA, RNA, and protein synthesis; assay: DNA, RNA and protein synthesis in uninfected bacteria expressing cloned SPO1 genes; assay type: cell-based, B. subtilis or E. coli; conditions: expression of cloned gene(s) in uninfected cells
Method: Pulse Labeling: Rates of synthesis of host and phage RNA or protein were measured in C4 medium as described previously (Wei and Stewart, 1993), by pulse-labeling for 5 minutes with [5-^3H]uridine, or [4,5-^3H]leucine, precipitating with TCA, and counting the precipitate. Since SPO1 DNA contains hmUra in place of thymine, host DNA synthesis could be measured independently by pulsing with [methyl-^3H]thymidine. Phage DNA synthesis was measured by pulsing with [2,8-^3H]adenine, and measuring alkali-stable, TCA-precipitable counts. Pulsing with [2,8-^3H]adenine measures host as well as phage DNA synthesis, but most host DNA synthesis has been shut off by the time that phage replication begins, even in mutant infections, so incorporation of label after 12 minutes is overwhelmingly into phage DNA. The time given for each pulse is the time at which the pulse began.
Adding gene 50 to the 51 clone increases its lethal efficiency, as does combining all 3 genes in a single clone. […] Mutants resistant to genes 51/50 have been isolated, but the mutant gene(s) have not yet been identified. […] The effects on DNA and protein synthesis are probably indirect effects of the inhibition of host RNA synthesis.
The simplest hypothesis as to how GP44/50/51 regulate gene expression is that they interact with the host's RNAP to change its transcriptional specificity. […]

[5] = test system: bacterial DNA, RNA, and protein synthesis; conditions: uninfected cells of either B. subtilis or E. coli; Wei and Stewart, 1993, 1995; cited from earlier work

B1: Gene 56: product of SPO1 host-takeover gene 56, SEQ ID NO: 20 (protein)
chain: MFKYTDRSVRQYIERQQRSAMLEQEQAEKDKKERRKAGLLFFGTIVVLVAVVAVYIVPQSLDAMWHENYEKPAQEAARN
modifications: SPO1 Bacteriophage
With B1 the “Lethality, E. coli” value (E. coli) was “Mildly toxic”, the “Lethality, B. subtilis” value (B. subtilis [1]; listed as 56) was “Lethal” and the “effect on cell division” value (B. subtilis [2]) was “specifically inhibiting cell division, without affecting DNA synthesis or chromosomal segregation”. For the same molecule, the “toxicity or lethality of expression” value (bacteria) was “lethal effect”.

B2: Gene 45: product of SPO1 host-takeover gene 45, SEQ ID NO: 9 (protein)
chain: MMMDKQVEEVKKHYPIVEDWSVIVARKEDDCMTVTDAVPFILAGYKNVSYEMDDIVVLCSEPIGLTWEDVRFLKNHEGSVSFEEIGYEDKAMVYHVDLG
modifications: SPO1 Bacteriophage
In the case of B2, the “Lethality, E. coli” value (E. coli) is reported as “Toxic”, the “Lethality, B. subtilis” value (B. subtilis [1]) is reported as “Mildly Toxic” and the “toxicity or lethality of expression” value (bacteria) is reported as “toxic but not lethal”.

B3: Gene 44: product of SPO1 host-takeover gene 44, SEQ ID NO: 8 (protein)
chain: MAKSNNVYVVNGEEKVSTLAEVAKVLGVSRVSKKDVEEGKYDVVVEEAAVSLADTEEVVEEVVTEEEDILEGVEVVEDEEEEEAAEDVEEPTSEEDSEDEWEEGYPVATEVEEDEDEEIEYPEVGDFEDEKAIKKYIKGLTDEQLQAWCELEGAEWVENEHRNINRMRMAMAIKAVHFPELAKKPSSKKKSKYAEYTTEELVEMAIDNNVEVRDDKGNERILRMYTIIALREAGLIS
modifications: SPO1 Bacteriophage
With B3 the “Lethality, E. coli” value (E. coli; listed as 44) was “Lethal”, the “Lethality, B. subtilis” value (B. subtilis [1]; listed as 44) was “Lethal” and the cells killed [3] was “More than 99%”. The “effect of expression on bacterial DNA, RNA and protein synthesis” value [4] was “inhibiting DNA, RNA, and protein synthesis” and the “effect of expression on bacterial RNA synthesis and viability” value [5] was “caused the shutoff of bacterial RNA synthesis and cell death”.

B4: Gene 51: product of SPO1 host-takeover gene 51, SEQ ID NO: 15 (protein)
chain: MAKINKGYVANFIEENGFPEQGHFEEKKDLQAFYKHLSTEQLEEWVELEGLEVKDTDSDSIYRMRLCMAILYLNFPKKTAGKKKASPYKHISLEELVQMATDNDIEVKHTDSDKILRMRTIMALKEAGKLG
modifications: SPO1 Bacteriophage
With B4 the “Lethality, E. coli” value (E. coli; listed as 51) was “Lethal”, the “Lethality, B. subtilis” value (B. subtilis [1]; listed as 51) was “Lethal” and the “effect of expression on bacterial DNA, RNA and protein synthesis” value [4] was “inhibiting DNA, RNA, and protein synthesis”.
